System: Escherichia coli TOP10
Assay: shrunken log2 fold change of peptide-encoding DNA abundance (4.5 h post-induction vs induction); higher = less antimicrobial activity (less host growth inhibition)
Conditions: time post-induction: 4.5 h; library: site-saturation at positions 5, 18, 19, 20
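Also: peptides expressed intracellularly from a pBAD plasmid library in pooled LB shake-flask culture, induced with 0.3% L-arabinose, DNA abundance read by NGS, three biological replicates, DESeq2 with apeglm shrinkage.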

Row | Sequence | shrunken log2 fold change
1 | RRIRHRPPRLPRPRPRPVYSPRP | -0.0167
2 | RRIRQRPPRLPRPRPRPKYMPRP | -0.386
3 | RRIRKRPPRLPRPRPRPTPHPRP | 0.653
4 | RRIRTRPPRLPRPRPRPGSDPRP | 0.424
5 | RRIRIRPPRLPRPRPRPMGVPRP | -0.0148
6 | RRIRERPPRLPRPRPRPVGQPRP | 0.129
7 | RRIRIRPPRLPRPRPRPACAPRP | -0.149
8 | RRIRRRPPRLPRPRPRPRTRPRP | 0.528
9 | RRIRLRPPRLPRPRPRPNDLPRP | -0.00842
10 | RRIRVRPPRLPRPRPRPQENPRP | -0.119
11 | RRIRLRPPRLPRPRPRPLNIPRP | -0.221
12 | RRIRRRPPRLPRPRPRPKGIPRP | 0.268
13 | RRIRFRPPRLPRPRPRPCIMPRP | -0.953
14 | RRIRKRPPRLPRPRPRPLDQPRP | 0.257
15 | RRIRCRPPRLPRPRPRPERLPRP | 0.0345
16 | RRIRLRPPRLPRPRPRPEEWPRP | 0.119
17 | RRIRKRPPRLPRPRPRPGIYPRP | 0.107
18 | RRIRYRPPRLPRPRPRPWYDPRP | -0.109
19 | RRIRHRPPRLPRPRPRPACTPRP | 0.0224
20 | RRIRVRPPRLPRPRPRPFNHPRP | -0.106
21 | RRIRTRPPRLPRPRPRPVQSPRP | -0.00991
22 | RRIRWRPPRLPRPRPRPFNMPRP | -0.298
23 | RRIRTRPPRLPRPRPRPFVKPRP | -0.838
24 | RRIRSRPPRLPRPRPRPHCNPRP | -0.36
25 | RRIRLRPPRLPRPRPRPFKSPRP | -0.209

Row | Sequence | shrunken log2 fold change
26 | RRIRARPPRLPRPRPRPFTEPRP | -0.261
27 | RRIRVRPPRLPRPRPRPHDHPRP | -0.244
28 | RRIRGRPPRLPRPRPRPEIQPRP | 0.769
29 | RRIRWRPPRLPRPRPRPRYQPRP | -0.188
30 | RRIRIRPPRLPRPRPRPCWWPRP | 0.082
31 | RRIRWRPPRLPRPRPRPNLGPRP | 0.0106
32 | RRIRYRPPRLPRPRPRPGEEPRP | 0.0322
33 | RRIRERPPRLPRPRPRPDLTPRP | 0.0375
34 | RRIRIRPPRLPRPRPRPKVIPRP | 0.0457
35 | RRIRVRPPRLPRPRPRPKFIPRP | -0.286
36 | RRIRHRPPRLPRPRPRPKWEPRP | -0.000889
37 | RRIRCRPPRLPRPRPRPQHGPRP | -0.211
38 | RRIRPRPPRLPRPRPRPEDCPRP | -0.0873
39 | RRIRWRPPRLPRPRPRPMQWPRP | 0.379
40 | RRIRYRPPRLPRPRPRPCNTPRP | -0.425
41 | RRIRIRPPRLPRPRPRPLTLPRP | -0.22
42 | RRIRPRPPRLPRPRPRPSTAPRP | -0.105
43 | RRIRNRPPRLPRPRPRPSDCPRP | -0.483
44 | RRIRCRPPRLPRPRPRPPYAPRP | 0.141
45 | RRIRLRPPRLPRPRPRPTFSPRP | -0.0485
46 | RRIRARPPRLPRPRPRPTQFPRP | 0.071
47 | RRIRFRPPRLPRPRPRPWRCPRP | 0.174
48 | RRIRGRPPRLPRPRPRPCSHPRP | -0.112
49 | RRIRFRPPRLPRPRPRPNHSPRP | -0.832
50 | RRIRKRPPRLPRPRPRPTMKPRP | -0.0364

Row | Sequence | shrunken log2 fold change
51 | RRIRRRPPRLPRPRPRPLNNPRP | -0.338
52 | RRIRMRPPRLPRPRPRPWWCPRP | 0.0647
53 | RRIRNRPPRLPRPRPRPEAMPRP | 0.616
54 | RRIRHRPPRLPRPRPRPPHLPRP | 0.0576
55 | RRIRQRPPRLPRPRPRPLNKPRP | -0.503
56 | RRIRWRPPRLPRPRPRPLMPPRP | 0.486
57 | RRIRKRPPRLPRPRPRPSFMPRP | 1.94
58 | RRIRLRPPRLPRPRPRPEKKPRP | -0.176
59 | RRIRCRPPRLPRPRPRPHWSPRP | -0.395
60 | RRIRDRPPRLPRPRPRPRRLPRP | 0.472
61 | RRIRTRPPRLPRPRPRPTRAPRP | 0.687
62 | RRIRNRPPRLPRPRPRPRTEPRP | -0.279
63 | RRIRFRPPRLPRPRPRPRHIPRP | -0.439
64 | RRIRGRPPRLPRPRPRPHELPRP | 0.871
65 | RRIRWRPPRLPRPRPRPAIAPRP | 0.242
66 | RRIRMRPPRLPRPRPRPICAPRP | 0.486
67 | RRIRWRPPRLPRPRPRPPCWPRP | 0.347
68 | RRIRMRPPRLPRPRPRPQGYPRP | 0.0234
69 | RRIRYRPPRLPRPRPRPFCVPRP | -0.264
70 | RRIRHRPPRLPRPRPRPAFGPRP | 0.105
71 | RRIRDRPPRLPRPRPRPRHNPRP | -0.548
72 | RRIRPRPPRLPRPRPRPVHCPRP | 0.046
73 | RRIRDRPPRLPRPRPRPRCHPRP | -0.0835
